Several values for one entry are separate records, joined by “and”; a condition that tells them apart may be missing. Equal entries are not always repeated.
Assays:
Experiment in all cases: cell-based or functional assay
[1] = molecular target: human CD3 (human, UniProt P07766 23-207; P09693 23-182; P04234 22-171; P20963 22-164)
[2] = molecular target: T1, human CD33 (human, UniProt P20138 18-364)
[3] = molecular target: T1, human CD33; remark: listed apart in the source
[4] = molecular target: T1, human CD33; remark: listed apart in the source
[5] = molecular target: T1, human CD33; remark: listed apart in the source

T1 sequence (P20138 18-364): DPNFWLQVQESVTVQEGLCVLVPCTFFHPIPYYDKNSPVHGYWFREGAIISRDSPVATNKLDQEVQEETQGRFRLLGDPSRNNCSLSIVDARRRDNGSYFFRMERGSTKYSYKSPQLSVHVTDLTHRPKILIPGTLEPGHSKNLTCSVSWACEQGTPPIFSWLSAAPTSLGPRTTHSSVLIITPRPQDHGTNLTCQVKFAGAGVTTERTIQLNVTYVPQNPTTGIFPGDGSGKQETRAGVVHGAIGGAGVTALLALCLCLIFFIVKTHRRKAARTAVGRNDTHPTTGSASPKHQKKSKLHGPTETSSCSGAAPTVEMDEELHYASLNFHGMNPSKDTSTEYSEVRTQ
Sequence of human CD3 (P07766 23-207, chain 1 of 4): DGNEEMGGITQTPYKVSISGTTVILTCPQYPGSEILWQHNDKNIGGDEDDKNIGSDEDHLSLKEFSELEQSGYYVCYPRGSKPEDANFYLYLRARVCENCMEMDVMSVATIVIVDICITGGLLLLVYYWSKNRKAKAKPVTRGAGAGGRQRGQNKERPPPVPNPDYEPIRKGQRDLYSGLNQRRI
Sequence of human CD3 (P09693 23-182, chain 2 of 4): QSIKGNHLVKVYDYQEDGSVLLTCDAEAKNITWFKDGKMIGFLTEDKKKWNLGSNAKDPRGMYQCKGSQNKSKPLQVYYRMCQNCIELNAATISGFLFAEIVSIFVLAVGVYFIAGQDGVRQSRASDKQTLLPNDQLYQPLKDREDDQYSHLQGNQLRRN
Sequence of human CD3 (P04234 22-171, chain 3 of 4): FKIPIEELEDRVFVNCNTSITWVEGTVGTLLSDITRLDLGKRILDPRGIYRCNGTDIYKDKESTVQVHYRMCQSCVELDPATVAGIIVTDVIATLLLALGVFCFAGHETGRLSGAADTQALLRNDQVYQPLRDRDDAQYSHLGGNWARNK
Sequence of human CD3 (P20963 22-164, chain 4 of 4): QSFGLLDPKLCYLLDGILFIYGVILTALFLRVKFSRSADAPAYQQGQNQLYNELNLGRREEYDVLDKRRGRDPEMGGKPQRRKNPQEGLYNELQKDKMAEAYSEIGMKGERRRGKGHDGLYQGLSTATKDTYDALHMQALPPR

Row | Binder | CD25 Induction EC50 (PBMC, 24 h) [1] [pM] | CD69 Induction EC50 (PBMC, 24 h) [1] [pM] | EC50 cytotoxicity on HL-60, E:T 5:1, 20-24 h [2] | EC50 cytotoxicity on KG-1, E:T 5:1, 20-24 h [2] | EC50 cytotoxicity on U-937, E:T 5:1, 20-24 h [2] | EC50 cytotoxicity, mean of HL-60, U-937, KG-1 [2] | IC50 lysis of KG-1 cells with human T cells, E:T 5:1, 24 h [3] [pM] | EC50 calcein-release lysis of HL-60, E:T 25:1, 30 min [4] [pM] | EC50 calcein-release lysis of HL-60, E:T 25:1, 60 min [4] [pM] | EC50 calcein-release lysis of HL-60, E:T 25:1, 120 min [4] [pM] | EC50 calcein-release lysis of HL-60, E:T 25:1, 180 min [4] [pM] | EC50 calcein-release lysis of HL-60, E:T 25:1, 240 min [4] [pM] | EC50 calcein-release lysis of HL-60, E:T 25:1, 300 min [4] [pM] | IC50 lysis of KG-1 cells (separate experiment) [3] [pM] | EC50 on HL-60 (cytotoxicity) [5] [pM]
1 | CD33/CD3 2×2 T-cell engager 12 (bispecific antibody) DIQMTQSPSSLSASVGDRVTITCRSSTGAVTTSNYANWVQQKPGKAPKALIGGTNKRAPGVPSRFSGSLIGDKATLTISSLQPEDFATYYCALWYSNLWVFGQGTKVEIKGGSGGSQVQLVQSGAEVKKPGASVKVSCKASGYTFTSYDINWVRQAPGQGLEWMGWMNPNSGNTGFAQKFQGRVTMTRDTSTSTVYMELSSLRSEDTAVYYCARDRAVTDYYYGMDVWGQGTLVTVSSGGSGQSVLTQPPSASGTPGQRVTISCSGSRSNIGSNTVNWYQQLPGTAPKLLIYGNNQRPSGVPDRFSGSKSGTSASLAISGLQSEDEADYYCATWDDSLIGWVFGGGTKLTVLGGSGGSEVQLVESGGGLVQPGGSLRLSCAASGFTFSTYAMNWVRQAPGKGLEWVGRIRSKYNNYATYYADSVKDRFTISRDDSKNSLYLQMNSLKTEDTAVYYCARHGNFGNSYVSYFAYWGQGTLVTVSSAAAGSHHHHHH | 6 | 3 | 1.3 pM and 137 pg/mL | 1.2 pM and 126 pg/mL | 0.8 pM and 84 pg/mL | 1.1 pM and 116 pg/mL | ~0.01 |  |  |  |  |  |  |  | 
2 | CD33/CD3 2×2 T-cell engager 16 (bispecific antibody) DIQMTQSPSSLSASVGDRVTITCRSSTGAVTTSNYANWVQQKPGKAPKALIGGTNKRAPGVPSRFSGSLIGDKATLTISSLQPEDFATYYCALWYSNLWVFGQGTKVEIKGGSGGSQVQLVQSGAEVKKPGASVKVSCKASGYTFTSYDINWVRQAPGQGLEWMGWMNPNSGNTGFAQKFQGRVTMTRDTSTSTVYMELSSLRSEDTAVYYCARDRANTDYSLGMDVWGQGTLVTVSSGGSGQSVLTQPPSASGTPGQRVTISCSGSRSNIGSNTVNWYQQLPGTAPKLLIYGNNQRPSGVPDRFSGSKSGTSASLAISGLQSEDEADYYCATWDDSLIGWVFGGGTKLTVLGGSGGSEVQLVESGGGLVQPGGSLRLSCAASGFTFSTYAMNWVRQAPGKGLEWVGRIRSKYNNYATYYADSVKDRFTISRDDSKNSLYLQMNSLKTEDTAVYYCARHGNFGNSYVSYFAYWGQGTLVTVSSAAAGSHHHHHH | 1 | 2 | 1.5 pM and 158 pg/mL | 1.8 pM and 189 pg/mL | 1.9 pM and 200 pg/mL | 1.7 pM and 179 pg/mL | ~0.5 | 4.8 | 2.5 | 1.6 | 1.6 | 1.5 | 1.6 | 5 | 
3 | CD33/CD3 2×2 T-cell engager 14 (bispecific antibody) DIQMTQSPSSLSASVGDRVTITCRSSTGAVTTSNYANWVQQKPGKAPKALIGGTNKRAPGVPSRFSGSLIGDKATLTISSLQPEDFATYYCALWYSNLWVFGQGTKVEIKGGSGGSQVQLVQSGAEVKKPGASVKVSCKASGYTFTSYDINWVRQAPGQGLEWMGWMNPNSGNTGFAQKFQGRVTMTRDTSTSTVYMELSSLRSEDTAVYYCARDRANTDFSYGMDVWGQGTLVTVSSGGSGQSVLTQPPSASGTPGQRVTISCSGSRSNIGSNTVNWYQQLPGTAPKLLIYGNNQRPSGVPDRFSGSKSGTSASLAISGLQSEDEADYYCATWDDSLIGWVFGGGTKLTVLGGSGGSEVQLVESGGGLVQPGGSLRLSCAASGFTFSTYAMNWVRQAPGKGLEWVGRIRSKYNNYATYYADSVKDRFTISRDDSKNSLYLQMNSLKTEDTAVYYCARHGNFGNSYVSYFAYWGQGTLVTVSSAAAGSHHHHHH | 10 | 7 | 1.6 pM and 168 pg/mL | 2.6 pM and 273 pg/mL | 3.6 pM and 378 pg/mL | 2.6 pM and 273 pg/mL |  |  |  |  |  |  |  |  | 11.6

From patent US20210324076A1 (AMPHIVENA THERAPEUTICS, published 2021)
